Test results reported in the supplement of paper PMC10724198.

Legend:
[1] = system: Saccharomyces cerevisiae; assay: protein stability index of tFT-peptide fusion in deletion strain of DOA10 (PSI (0-1 scale)); higher = more stable (slower turnover)
Experimental: (§1)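 MPS profiling in S. cerevisiae of two library types built from selected 12-aa C-degron peptides (IN1, IN2, LN1, LN3, VN2, R1-R5, W1-W3, Atg1 and Rpa12 C-termini): saturation mutagenesis libraries and C-terminal +1 capping libraries (13 aa). Each peptide is fused to the C-terminus of a sfGFP-mCherry timer, after a GGGS linker. Cells are FACS-sorted into 8 mCherry/sfGFP bins and sequenced. PSI runs from 0 (unstable) to 1 (stable), measured once in wild type and in the das1Δ or doa10Δ background.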

[2] = system: Saccharomyces cerevisiae; assay: protein stability index of tFT-peptide fusion in wild type (PSI (0-1 scale)); higher = more stable (slower turnover); details: genetic background: wild type
Experimental: as §1

[3] = system: Saccharomyces cerevisiae; assay: protein stability index of tFT-peptide fusion in deletion strain of DAS1 (PSI (0-1 scale)); higher = more stable (slower turnover)
Experimental: as §1
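Wherever protein stability index of tFT-peptide fusion in deletion strain of DAS1 is given: PSI is a weighted mean of each variant's read distribution over the sorted stability bins, computed only for variants having over 10 reads in total.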
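Wherever protein stability index of tFT-peptide fusion in deletion strain of DOA10 is given: PSI per variant is the weighted mean of its sequencing read distribution over the sorted stability bins, counting only variants with over 10 reads summed across bins.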
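Wherever protein stability index of tFT-peptide fusion in wild type is given: PSI derived as read-weighted mean over the 8 sorting bins, only variants exceeding 10 total reads kept, mCherry placed adjacent to the peptide and sfGFP distal.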

Sequence: RSLRVLLPLYNR
- protein stability index [1]: 0.666
- protein stability index [2]: 0.623

Sequence: CLVSQPILLFFR
- protein stability index [1]: 0.628
- protein stability index [2]: 0.227

Sequence: RVTRLEAIYFRI
- protein stability index [1]: 0.62
- protein stability index [2]: 0.268

Sequence: RSYRVLLPLYFR
- protein stability index [1]: 0.637
- protein stability index [2]: 0.217

Sequence: RVTRLDAIYFRII
- protein stability index [1]: 0.127
- protein stability index [2]: 0.0611

Sequence: GLYMCSVGCWFRR
- protein stability index [1]: 0.646
- protein stability index [2]: 0.347

Sequence: RVTRCDAIYFRI
- protein stability index [1]: 0.677
- protein stability index [2]: 0.467

Sequence: GLYMESVGCWFR
- protein stability index [1]: 0.703
- protein stability index [2]: 0.415

Sequence: RSLRVLLPLYFRL
- protein stability index [1]: 0.496
- protein stability index [2]: 0.194

Sequence: GLYMCSVGCWFN
- protein stability index [1]: 0.343
- protein stability index [2]: 0.29

Sequence: RSLRVLLPQYFR
- protein stability index [1]: 0.689
- protein stability index [2]: 0.642

Sequence: GLYMCSGGCWFR
- protein stability index [1]: 0.687
- protein stability index [2]: 0.47

Sequence: AITLPMCPLLLRK
- protein stability index [1]: 0.67
- protein stability index [2]: 0.43

Sequence: RITLPMCPLLLR
- protein stability index [1]: 0.651
- protein stability index [2]: 0.296

Sequence: GLYMCSVGCWFC
- protein stability index [1]: 0.287
- protein stability index [2]: 0.261

Sequence: RVRRLDAIYFRI
- protein stability index [1]: 0.641
- protein stability index [2]: 0.385

Sequence: RVTRLDAMYFRI
- protein stability index [1]: 0.698
- protein stability index [2]: 0.549

Sequence: AITLPGCPLLLR
- protein stability index [1]: 0.683
- protein stability index [2]: 0.327

Sequence: AITLPMHPLLLR
- protein stability index [1]: 0.643
- protein stability index [2]: 0.25

Sequence: RVTRLHAIYFRI
- protein stability index [1]: 0.372
- protein stability index [2]: 0.172

Sequence: RVTRLKAIYFRI
- protein stability index [1]: 0.32
- protein stability index [2]: 0.155

Sequence: RSLRVLLPLYFRK
- protein stability index [1]: 0.593
- protein stability index [2]: 0.293

Sequence: RMTRLDAIYFRI
- protein stability index [1]: 0.655
- protein stability index [2]: 0.429

Sequence: RVTRLDARYFRI
- protein stability index [1]: 0.718
- protein stability index [2]: 0.667

Sequence: GLYMCSSGCWFR
- protein stability index [1]: 0.679
- protein stability index [2]: 0.435

Sequence: GLYMCSVGCPFR
- protein stability index [1]: 0.677
- protein stability index [2]: 0.642

Sequence: CLVSLPILLFFW
- protein stability index [1]: 0.435
- protein stability index [2]: 0.252

Sequence: CLVSLPILCFFR
- protein stability index [1]: 0.558
- protein stability index [2]: 0.0771

Sequence: RVTRLPAIYFRI
- protein stability index [1]: 0.636
- protein stability index [2]: 0.217

Sequence: AITQPMCPLLLR
- protein stability index [1]: 0.701
- protein stability index [2]: 0.508

Sequence: GLYHCSVGCWFR
- protein stability index [1]: 0.674
- protein stability index [2]: 0.409

Sequence: CLVSLPILLIFR
- protein stability index [1]: 0.537
- protein stability index [2]: 0.0669

Sequence: RVTRLDAIYFKI
- protein stability index [1]: 0.595
- protein stability index [2]: 0.352

Sequence: WLVSLPILLFFR
- protein stability index [1]: 0.518
- protein stability index [2]: 0.105

Sequence: RVTCLDAIYFRI
- protein stability index [1]: 0.655
- protein stability index [2]: 0.477

Sequence: AITLPMCPLLPR
- protein stability index [1]: 0.673
- protein stability index [2]: 0.667

Sequence: CLVSKPILLFFR
- protein stability index [1]: 0.627
- protein stability index [2]: 0.17

Sequence: CLVSLPILLFVR
- protein stability index [1]: 0.249
- protein stability index [2]: 0.0446

Sequence: RSLRVPLPLYFR
- protein stability index [1]: 0.687
- protein stability index [2]: 0.113

Sequence: AITLPMCPLLLT
- protein stability index [1]: 0.491
- protein stability index [2]: 0.449

Sequence: AITLPMCPLLLS
- protein stability index [1]: 0.443
- protein stability index [2]: 0.405

Sequence: CLVSLPMLLFFR
- protein stability index [1]: 0.626
- protein stability index [2]: 0.0605

Sequence: GLYMCSVGNWFR
- protein stability index [1]: 0.683
- protein stability index [2]: 0.611

Sequence: RVTRLDACYFRI
- protein stability index [1]: 0.707
- protein stability index [2]: 0.532

Sequence: GLYMCSVGCWFW
- protein stability index [1]: 0.453
- protein stability index [2]: 0.333

Sequence: AITLPMCPALLR
- protein stability index [1]: 0.672
- protein stability index [2]: 0.493

Sequence: RSLRVLLPLYFH
- protein stability index [1]: 0.583
- protein stability index [2]: 0.365

Sequence: CLVSLCILLFFR
- protein stability index [1]: 0.334
- protein stability index [2]: 0.23

Sequence: GLYGCSVGCWFR
- protein stability index [1]: 0.683
- protein stability index [2]: 0.504

Sequence: AIRLPMCPLLLR
- protein stability index [1]: 0.649
- protein stability index [2]: 0.27

Sequence: AISLPMCPLLLR
- protein stability index [1]: 0.655
- protein stability index [2]: 0.226

Sequence: RSLRVLLPLYER
- protein stability index [1]: 0.658
- protein stability index [2]: 0.645

Sequence: RATRLDAIYFRI
- protein stability index [1]: 0.681
- protein stability index [2]: 0.493

Sequence: RSLRVLLPYYFR
- protein stability index [1]: 0.678
- protein stability index [2]: 0.545

Sequence: RVHRLDAIYFRI
- protein stability index [1]: 0.659
- protein stability index [2]: 0.438

Sequence: RNTRLDAIYFRI
- protein stability index [1]: 0.664
- protein stability index [2]: 0.529

Sequence: PDKRNHLMKLLN
- protein stability index [2]: 0.089
- protein stability index [3]: 0.592

Sequence: MKHKKGQKQKIN
- protein stability index [2]: 0.0627
- protein stability index [3]: 0.649

Sequence: FSMAWTFRYWVN
- protein stability index [2]: 0.0458
- protein stability index [3]: 0.456

Sequence: ARWRVGLWRGGS
- protein stability index [2]: 0.672
- protein stability index [3]: 0.684

Sequence: PSLAASFWRMVG
- protein stability index [2]: 0.151
- protein stability index [3]: 0.646

Sequence: VRGAVKGWRLVG
- protein stability index [2]: 0.148
- protein stability index [3]: 0.68

Sequence: KKHKKGQKQKSN
- protein stability index [2]: 0.553
- protein stability index [3]: 0.615

Sequence: PSLAASFWRVVK
- protein stability index [2]: 0.661
- protein stability index [3]: 0.688

Sequence: PDKRNHQIKLLN
- protein stability index [2]: 0.127
- protein stability index [3]: 0.609

Sequence: CTSCGYKFWTNN
- protein stability index [2]: 0.299
- protein stability index [3]: 0.75

Sequence: CFSCGYKFRTNN
- protein stability index [2]: 0.188
- protein stability index [3]: 0.682

Sequence: VRGAVGGLRLVG
- protein stability index [2]: 0.628
- protein stability index [3]: 0.681

Sequence: KKHKKGQCQKIN
- protein stability index [2]: 0.16
- protein stability index [3]: 0.801

Sequence: KKHKKGQKQKINA
- protein stability index [2]: 0.259
- protein stability index [3]: 0.655

Sequence: LKILRQKMNHYN
- protein stability index [2]: 0.223
- protein stability index [3]: 0.657

Sequence: LKILRQKMNHQT
- protein stability index [2]: 0.252
- protein stability index [3]: 0.671

Sequence: LVVYLSCVACGN
- protein stability index [2]: 0.0824
- protein stability index [3]: 0.0998

Sequence: RLIQDLPVQFLN
- protein stability index [2]: 0.14
- protein stability index [3]: 0.588

Sequence: CTSCGYFFRTNN
- protein stability index [2]: 0.222
- protein stability index [3]: 0.695

Sequence: FSMRITFRYWVN
- protein stability index [2]: 0.0393
- protein stability index [3]: 0.336

Sequence: VRTAVGGWRLVG
- protein stability index [2]: 0.137
- protein stability index [3]: 0.678

Sequence: RLLQPLPVQFLN
- protein stability index [2]: 0.037
- protein stability index [3]: 0.595

Sequence: ARWRCGLWRGAS
- protein stability index [2]: 0.574
- protein stability index [3]: 0.695

Sequence: AWWRVGLWRGAS
- protein stability index [2]: 0.504
- protein stability index [3]: 0.68

Sequence: KKHKKDQKQKIN
- protein stability index [2]: 0.0671
- protein stability index [3]: 0.606

Sequence: VRNAVGGWRLVG
- protein stability index [2]: 0.137
- protein stability index [3]: 0.674

Sequence: IDKRNHLIKLLN
- protein stability index [2]: 0.143
- protein stability index [3]: 0.584

Sequence: PDKRNHLWKLLN
- protein stability index [2]: 0.0949
- protein stability index [3]: 0.601

Sequence: RLIQHLPVQFLN
- protein stability index [2]: 0.0489
- protein stability index [3]: 0.636

Sequence: TSLAASFWRVVG
- protein stability index [2]: 0.125
- protein stability index [3]: 0.688

Sequence: LVVFLSCVACIN
- protein stability index [2]: 0.0196
- protein stability index [3]: 0.0386

Sequence: VRGWVGGWRLVG
- protein stability index [2]: 0.134
- protein stability index [3]: 0.681

Sequence: PDKRNHYIKLLN
- protein stability index [2]: 0.0965
- protein stability index [3]: 0.683

Sequence: KKHKKGNKQKIN
- protein stability index [2]: 0.0792
- protein stability index [3]: 0.601

Sequence: LVVYLKCVACIN
- protein stability index [2]: 0.0164
- protein stability index [3]: 0.0351

Sequence: PDKRNILIKLLN
- protein stability index [2]: 0.165
- protein stability index [3]: 0.598

Sequence: LKILRQKPNHQN
- protein stability index [2]: 0.68
- protein stability index [3]: 0.675

Sequence: LGILRQKMNHQN
- protein stability index [2]: 0.141
- protein stability index [3]: 0.685

Sequence: FSMRWTSRYWVN
- protein stability index [2]: 0.105
- protein stability index [3]: 0.598

Sequence: LVVALSCVACIN
- protein stability index [2]: 0.0223
- protein stability index [3]: 0.0802

Sequence: PDKRNKLIKLLN
- protein stability index [2]: 0.115
- protein stability index [3]: 0.671

Sequence: FSMRRTFRYWVN
- protein stability index [2]: 0.102
- protein stability index [3]: 0.616

Sequence: RLIQPLPVQFLNG
- protein stability index [2]: 0.626
- protein stability index [3]: 0.655

Sequence: PSLAASFWRVRG
- protein stability index [2]: 0.666
- protein stability index [3]: 0.683

Sequence: LKILKQKMNHQN
- protein stability index [2]: 0.222
- protein stability index [3]: 0.68

Sequence: PDKRNHLIKSLN
- protein stability index [2]: 0.298
- protein stability index [3]: 0.627

Sequence: LKILRPKMNHQN
- protein stability index [2]: 0.541
- protein stability index [3]: 0.669

Sequence: KKHKKGQKQFIN
- protein stability index [2]: 0.209
- protein stability index [3]: 0.558

Sequence: VLIQPLPVQFLN
- protein stability index [2]: 0.0725
- protein stability index [3]: 0.603

Sequence: CTSCGYCFRTNN
- protein stability index [2]: 0.261
- protein stability index [3]: 0.7

Sequence: AYWRVGLWRGAS
- protein stability index [2]: 0.449
- protein stability index [3]: 0.699

Sequence: ARWRVHLWRGAS
- protein stability index [2]: 0.294
- protein stability index [3]: 0.695

Sequence: ARWRVGLWRGASA
- protein stability index [2]: 0.665
- protein stability index [3]: 0.672

Sequence: LVVQLSCVACIN
- protein stability index [2]: 0.0253
- protein stability index [3]: 0.0857

Sequence: VRGATGGWRLVG
- protein stability index [2]: 0.188
- protein stability index [3]: 0.682

Sequence: VGGAVGGWRLVG
- protein stability index [2]: 0.156
- protein stability index [3]: 0.67

Sequence: LKILRFKMNHQN
- protein stability index [2]: 0.201
- protein stability index [3]: 0.667

Sequence: VVGAVGGWRLVG
- protein stability index [2]: 0.125
- protein stability index [3]: 0.69

Sequence: FSMRWTFTYWVN
- protein stability index [2]: 0.0917
- protein stability index [3]: 0.389
